Tests used:
[1] = target: porcine aminopeptidase N (pAPN) ectodomain, soluble (pig) (UniProt P15145); experiment: crystal structure; HA-tagged APN ectodomains; pAPNeh: 5% PEG-1000, 10% PEG-8000 (pH ~6); native pAPN: 20% PEG-3350, 100 mM sodium acetate pH 5.6; hAPN: 20% PEG-6000, 50 mM imidazole-HCl pH 8.0; dimer in the crystals
[2] = target: seleno-Met, endoglycosidase H-treated porcine APN ectodomain (pig) (UniProt P15145); experiment: as above
[3] = target: TGEV RBD-Fc fusion protein (bivalent RBD-Fc variant); experiment: flow cytometry on cells; details: 293T cell surface, normalized to cell surface expression, read off a plot
[4] = target: the molecule itself; experiment: crystal structure; HA-tagged APN ectodomains; pAPNeh: 5% PEG-1000, 10% PEG-8000 (pH ~6); native pAPN: 20% PEG-3350, 100 mM sodium acetate pH 5.6; hAPN: 20% PEG-6000, 50 mM imidazole-HCl pH 8.0; dimer in the crystals
[5] = + DTT (5 mM; 30 min, 37 °C) before assay, parent: est. 110

With “porcine aminopeptidase N (pAPN) ectodomain, soluble (from UniProt P15145 36-963) (domain or fragment)” the stoichiometry N [1] was 2.

Work on “seleno-Met, endoglycosidase H-treated porcine APN ectodomain (from UniProt P15145 36-963) (domain or fragment)” yielded a stoichiometry N [2] of 2.

“wild type porcine APN on the surface of transiently transfected 293T cells (from UniProt P15145) S464C; S892C” showed a percent of parent [3, 5] of 120% and a percent of parent ([3]; - DTT, parent: est. 100) of 45%.

“wild type porcine APN on the surface of transiently transfected 293T cells (from UniProt P15145) S464C; S892C; S929C” gave a percent of parent [3, 5] of 76% and a percent of parent ([3]; - DTT, parent: est. 100) of 37%.

With “wild type porcine APN on the surface of transiently transfected 293T cells (from UniProt P15145) S464C; S929C” the percent of parent [3, 5] was 110% and the percent of parent ([3]; - DTT, parent: est. 100) was 19%.

B1: human aminopeptidase N (hAPN) ectodomain, soluble (domain or fragment, UniProt P15144 36-967, looked up)
chain: EKNKNANSSPVASTTPSASATTNPASATTLDQSKAWNRYRLPNTLKPDSYRVTLRPYLTPNDRGLYVFKGSSTVRFTCKEATDVIIIHSKKLNYTLSQGHRVVLRGVGGSQPPDIDKTELVEPTEYLVVHLKGSLVKDSQYEMDSEFEGELADDLAGFYRSEYMEGNVRKVVATTQMQAADARKSFPCFDEPAMKAEFNITLIHPKDLTALSNMLPKGPSTPLPEDPNWNVTEFHTTPKMSTYLLAFIVSEFDYVEKQASNGVLIRIWARPSAIAAGHGDYALNVTGPILNFFAGHYDTPYPLPKSDQIGLPDFNAGAMENWGLVTYRENSLLFDPLSSSSSNKERVVTVIAHELAHQWFGNLVTIEWWNDLWLNEGFASYVEYLGADYAEPTWNLKDLMVLNDVYRVMAVDALASSHPLSTPASEINTPAQISELFDAISYSKGASVLRMLSSFLSEDVFKQGLASYLHTFAYQNTIYLNLWDHLQEAVNNRSIQLPTTVRDIMNRWTLQMGFPVITVDTSTGTLSQEHFLLDPDSNVTRPSEFNYVWIVPITSIRDGRQQQDYWLIDVRAQNDLFSTSGNEWVLLNLNVTGYYRVNYDEENWRKIQTQLQRDHSAIPVINRAQIINDAFNLASAHKVPVTLALNNTLFLIEERQYMPWEAALSSLSYFKLMFDRSEVYGPMKNYLKKQVTPLFIHFRNNTNNWREIPENLMDQYSEVNAISTACSNGVPECEEMVSGLFKQWMENPNNNPIHPNLRSTVYCNAIAQGGEEEWDFAWEQFRNATLVNEADKLRAALACSKELWILNRYLSYTLNPDLIRKQDATSTIISITNNVIGQGLVWDFVQSNWKKLFNDYGGGSFSFSNLIQAVTRRFSTEYELQQLEQFKKDNEETGFGSGTRALEQALEKTKANIKWVKENKEVVLQWFTENSK
With B1 the “stoichiometry N” value [4] was 2.
